Test [1] has as its target RTL342m (α1β1 domains of DR2 linked to mouse MOG-35-55 peptide) (human HLA-DR2 (DRA*01:01/DRB1*15:01) …, UniProt Q61885;IMGT). Nature of the test: ELISA.
For test [2], the target named is T1, RTL340 (DR2/MBP-85-99), biotinylated version (human, DRA*01:01/DRB1*15:01, biotin on the Bir-A tag).
T1 chain 1: ENPVVHFFKNIVTPR
T1 chain 2: not shown
T1 chain 3: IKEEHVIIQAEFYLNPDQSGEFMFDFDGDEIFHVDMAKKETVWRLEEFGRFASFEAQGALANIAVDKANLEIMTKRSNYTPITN
Nature of the test: ELISA.

B1: Fab 1F11 (Fab, V domains shown)
VH: QLQLQESGPGLVKPSETLSLTCTVSGVSISSRSGHWGWVRQPPGKGLEWIGSISYSGSTYYNPSLKSRVTISVDTSKNQLSLKLSSVTAADTAVYYCARESHPAAALVGWGQGTLVTVSS
VL: ETTLTQSPGTLSLSPGERATLSCRASQSIINSHLAWYQQKPGQAPRLLIYGASSRATGIPDRFSGGGSGTDFTLTITRLETEDFALYFCQQYGTSPLTFGGGTRVETK
With B1, in test [1], the “fold reduction in ELISA binding to RTL342m compared to RTL1000” value (“fold reduction in ELISA binding” below) came out at 5 fold.

B2: Fab 3A3 (Fab, V domains shown)
VH: QVQLQESGGGLVKPGGSLRLSCAASGFTFSSYSMNWVRQAPGKGLEWVSSISSSSSYIYYADSVKGRFTISRDNAKNSLYLQMNSLRAEDTAVYYCARVRGHRYYYDSSGYYSSDYYYYYGMDVWGQGTTVTVSS
VL: DIQLTQSPSSVSASVGDRVTITCRASQVISSWLAWYQQKPGKAPKLLISTASSLQSGVPPRFSGSGSGTDFTLTITSLQPEDFATYYCQQANSFPLTFGQGTKVEIK
Regarding B2, the “fold reduction in ELISA binding” value in test [1] turned out to be 5 fold.

B3: Fab 2C3 (Fab, V domains shown)
VH: QVQLVQSGGGVVQPGRSLRLSCAASGFTFSSYAMHWVRQAPGKGLEWVAVISYDGSNKYYADSVKGRFTISRDNSKNTLYLQMNSLRAEDTAVYYCARDRSFWSGYYIINYYYYGMDVWGQGTTVTVSS
VL: DVVMTQSPLSLPVTPGEPASISCRSSQSLLHSDGNNYLDWYLQKPGQSPQLLIYLGSNRASGVPDRFSGSGSGTDFTLKISRVEPEDVGVYYCMQALHIPLTFGQGTRLEIK
B3: the binding result in test [2] is “no binding”.

B4: Fab 2E4 (Fab, V domains shown)
VH: EVQLVESGAEVKKPGASVKVSCKASGYTFTSYYMHWVRQAPGQGLEWMGIINPSGGSTSYAQKFQGRVTMTRDTSTSTVYMELSSLRSEDTAVYYCAREGDNYYGDAFDIWGQGTMVTVSS
VL: EIVLTQSPATLSLSPGERATLSCRASQSVSSYLAWYQQKPGQAPRLLIYDASNRATGIPARFSGSGSGTDFTLTISSLEPEDFAVYYCQQRSNWPPSYTFGQGTKLEIK
For the molecule B4, in test [1], the “fold reduction in ELISA binding” value stood at 2 fold.

Values taken from article PMC3085348 (European journal of immunology, 2011).
